Source: patent US6803203

Tests used:
[1] = test system: T1, synthetic peptide (SEQ ID NO: 20)
T1 sequence: EPPLSEQAFADLWKK

[2] = test system: T2, synthetic peptide (SEQ ID NO: 11)
T2 sequence: EPPLSQEAFADLWKK

casein kinase I
incorporation of phosphate into the peptide (200 or 500 µM) [1]: less than 5% of the incorporation into the standard peptides used to assay each kinase
incorporation of phosphate into the peptide (200 or 500 µM) [2]: less than 5% of the incorporation into the standard peptides used to assay each kinase

casein kinase II
incorporation of phosphate into the peptide (200 or 500 µM) [1]: less than 5% of the incorporation into the standard peptides used to assay each kinase
incorporation of phosphate into the peptide (200 or 500 µM) [2]: less than 5% of the incorporation into the standard peptides used to assay each kinase

catalytic subunit of cyclic AMP kinase
incorporation of phosphate into the peptide (200 or 500 µM) [1]: less than 5% of the incorporation into the standard peptides used to assay each kinase
incorporation of phosphate into the peptide (200 or 500 µM) [2]: less than 5% of the incorporation into the standard peptides used to assay each kinase
